Data reported in patent US20220235344A1, “TRYPSIN VARIANTS WITH IMPROVED ENZYMATIC PROPERTIES” (BIOPHARMA TRANSLATIONSINSTITUT DESSAU FORSCHUNGS GMBH, priority 2018, published 2022).

T1: H-RAHAK(DNP)-OH
T1 chain: RAHAK

T2: H-RHAK-OH
T2 chain: RHAK


Key:
H-RAHAK(DNP)-OH = target: T1, H-RAHAK(DNP)-OH
H-RHAK-OH = target: T2, H-RHAK-OH
[1] = system: Bz PGGXaaXaaXaaHAG-OH / H-XaaXaaXaaAK(DNP)-OH (recognition sequences YRRH, YMKH, RMKH); assay: Time course of transamidation by A2C8_H39Y/H59Y/E60K/K189D and wild-type trypsin (FIG. 5); type: biochemical; conditions: recognition sequences YRRH, YMKH and RMKH; 10 μM variant or 2.5 nM anionic rat trypsin II
Description: FIG. 5: Time course of the product formation for a transamidation reaction catalyzed by the variant A2C8_H39Y/H59Y/E60K/K189D as well as the wild-type Trypsin in correlation to various peptide substrates. Reaction conditions: 100 μM acyl donor (Bz PGGXaaXaaXaaHAG-OH), 200 μM acyl acceptor (H-XaaXaaXaaAK(DNP)-OH), 10 μM trypsin variant A2C8_H39Y/H59Y/E60K/K189D or 2.5 nM anionic rat trypsin II, 100 mM HEPES/NaOH pH 7.8, 0.1 mM ZnCl2, 100 mM NaCl, 10 mM CaCl2, T=30° C. UPLC analysis: Waters Acquity Ultra Performance LC, C18-column, gradient 5-60% acetonitrile, 5 min, detection at 360 nm.
The three substrates with the highest apparent turnover rate for the aminolysis reaction were then used for investigating the synthesis behavior of variant A2C8_H39Y/H59Y/E60K/K189D. In FIG. 5 the time course of product formation for a transamidation reaction catalyzed by variant A2C8_H39Y/H59Y/E60K/K189D with various peptide substrates is illustrated.

[2] = system: Bz-AAYRHAAG-OH (acyl donor) / H-RHAK-OH (acyl acceptor); assay: Model transamidation reaction at low substrate concentration, Trypsiligase I, 2G10, 1C11, hybrid (Example 2); type: biochemical; conditions: for product yield (%): 15 μM Bz-AAYRHAAG-OH, 30 μM H-RHAK-OH, 0.5-2.1 μM trypsin variant, 0.1 mM ZnCl2, pH 7.8, 30° C.; for kcat, AL^app (mkat/mol) / kcat, AL^app/kcat, HL^app / kcat, HL^app (mkat/mol): 15 μM acyl donor, 30 μM acyl acceptor, 0.1 mM ZnCl2
Description: FIG. 1: Time course of product formation for a transamidation reaction catalyzed by Trypsiligase I as well as the improved variants 2G10, 1C11 and the hybrid variant. Reaction conditions: 15 μM Bz-[…]-OH (acyl donor), 30 μM H-RHAK-OH (acyl acceptor), 0.5-2.1 μM trypsin variant, 100 mM HEPES/NaOH pH 7.8, 0.1 mM ZnCl2, 100 mM NaCl, 10 mM CaCl2, T=30° C. UPLC analysis: Waters Acquity Ultra Performance LC, C18-column, gradient 5-40% acetonitrile, 4 min, detection at 254 nm.
The measurements of the product yield and the apparent tumover rates for aminolysis (kcat,AL^app) and hydrolysis (kcat,HL^app) were performed by a model transamidation reaction with the following conditions: 15 μM Bz-[…]-OH (acyl donor), 30 μM H-RHAK-OH (acyl acceptor), 0.5-2.1 μM trypsin variant, 100 mM HEPES/NaOH pH 7.8, 0.1 mM ZnCl2, 100 mM NaCl, 10 mM CaCl2, T=30° C.

[3] = system: Bz-AAYRHAAG-OH (acyl donor) / H-RHAK-OH (acyl acceptor); assay: Model transamidation reaction, Trypsiligase I and improved variants (Example 1); type: biochemical; conditions: for kcat, HL^app (mkat/mol) / kcat,AL^app, apparent turnover rate for aminolysis (head is formula image MATH:00001) / product yield (%): 250 μM Bz-AAYRHAAG-OH, 500 μM H-RHAK-OH, 0.1 mM ZnCl2, pH 7.8, 30° C.; for product yield (%): 5-10 μM trypsin variant; for kcat, AL^app/kcat, HL^app: 250 μM acyl donor, 500 μM acyl acceptor, 0.1 mM ZnCl2; for Km: constant acyl donor concentration, varying acyl acceptor concentrations
Description: Peptide and reaction analytics were performed using a Waters ACQUITY UPLC System equipped with an RP-C18 column (ACQUITY UPLC BEH 130, C18, 1.7 μm, 2.1×100 mm) at flow rates of 0.5 ml/min. The used mobile phases are: water with 0.05% TFA (A) and acetonitrile with 0.05% TFA (B), respectively. For analysis two methods were applied: Method I: linear gradient of 5-40% B in 5 min, detection at 254 nm.
Quantities of product and educt were calculated from the integrated peak areas.
The measurements of the product yield and the apparent tumover rates for aminolysis (kcat,AL^app) and hydrolysis (kcat,HL^app) were performed by a model transamidation reaction with the following conditions: 250 μM Bz-[…]-OH (acyl donor), 500 μM H-RHAK-OH (acyl acceptor), 5-10 μM trypsin variant, 100 mM HEPES/NaOH pH 7.8, 0.1 mM ZnCl2, 100 mM NaCl, 10 mM CaCl2, T=30° C. KM values for the acyl acceptor were determined by the measurements of apparent turnover rates for aminolysis at constant acyl donor concentration and varying acyl acceptor concentrations.

| Molecule | KM, acyl acceptor (µM); zinc ions (100 µM): no; transamidation with 250 µM Bz-PGGYRAHAG-OH as acyl donor (H-RAHAK(DNP)-OH) [µM] | fold improvement of KM of the nucleophilic peptide against Trypsiligase II in the absence of zinc ions (H-RAHAK(DNP)-OH) | fold improvement of KM of the nucleophilic peptide against Trypsiligase II in the presence of zinc ions (H-RAHAK(DNP)-OH) | KM, acyl acceptor (µM); transamidation with Bz-AAYRHAAG-OH as acyl donor, 0.1 mM ZnCl2 (H-RHAK-OH) [µM] | product formation [1] | product yield (%) [2] [%] | kcat, AL^app (mkat/mol) [2] [mkat/mol] | kcat, AL^app/kcat, HL^app [2] | kcat, HL^app (mkat/mol) [2] [mkat/mol] | affinity for the nucleophilic substrate compared to Trypsiligase I [3] | kcat, HL^app (mkat/mol) [3] [mkat/mol] | kcat,AL^app, apparent turnover rate for aminolysis (head is formula image MATH:00001) [3] | product yield (%) [3] [%] | kcat, AL^app/kcat, HL^app [3] | Km [3] [µM] | aminolysis activity lowered by factor ([3]; versus Trypsiligase I) | increase for the ratio of aminolysis to hydrolysis activity (factor) ([3]; versus Trypsiligase I) | enzyme kinetic analyses (worded result) (H-RHAK-OH) |
| --- | --- | --- | --- | --- | --- | --- | --- | --- | --- | --- | --- | --- | --- | --- | --- | --- | --- | --- |
| Trypsiligase II variant A2C8 (protein) IVGGYTCQENSVPYQVSLNSGHFFCGGSLINDQWVVSAAHCHESRIQVRLGEHNINVLEGNEQFVNAAKIIKHPNFDEDTFNNDIMLIKLSSPVKLNARVATVALPSSCAPAGTQCLISGWGETLSSGVNYPDLLQCLDAPLLPQADCEASYPGKITDNMVCVGFLEGGKKVCAGDSGGPVVCNGELQGIVGWGYQCTLPDNPGVYTKVCNYVDWIQDTIAAN | 17.6 | by a factor of 8 and 92 in the presence or absence of zinc ions, respectively | by a factor of 8 and 92 in the presence or absence of zinc ions, respectively | – | – | – | – | – | – | – | – | – | – | – | – | – | – | – |
| Trypsiligase I (trypsin variant K60E/N143H/E151H/D189K) (protein) IVGGYTCQENSVPYQVSLNSGYHFCGGSLINDQWVVSAAHCYESRIQVRLGEHNINVLEGNEQFVNAAKIIKHPNFDRKTLNNDIMLIKLSSPVKLNARVATVALPSSCAPAGTQCLISGWGHTLSSGVNHPDLLQCLDAPLLPQADCEASYPGKITDNMVCVGFLEGGKKSCQGDSGGPVVCNGELQGIVSWGYGCALPDNPGVYTKVCNYVDWIQDTIAAN | – | – | – | 222 | – | – | – | – | – | – | – | – | – | – | – | – | – | – |
| wild-type trypsin: mature anionic rat trypsin II from Rattus norvegicus, SEQ ID NO: 1 (protein, Rat anionic trypsin II) IVGGYTCQENSVPYQVSLNSGYHFCGGSLINDQWVVSAAHCYKSRIQVRLGEHNINVLEGNEQFVNAAKIIKHPNFDRKTLNNDIMLIKLSSPVKLNARVATVALPSSCAPAGTQCLISGWGNTLSSGVNEPDLLQCLDAPLLPQADCEASYPGKITDNMVCVGFLEGGKDSCQGDSGGPVVCNGELQGIVSWGYGCALPDNPGVYTKVCNYVDWIQDTIAAN | – | – | – | – | Nearly no product formation | – | – | – | – | – | – | – | – | – | – | – | – | – |
| Trypsiligase I variant 1C11 (protein) IVGGYTCQENSVPYQVSLNSGYHFCGGSLINDQWVVSAAHCYESRIQVRLGEHNINVLEGNEQFVNAAKIIKHPNFDVKTFNNDIMLIKLSSPVKLNARVATVALPSSCAPAGTQCLISGWGHTLSSGVNHPDLLQCLDAPLLPQADCEASYPGKITDNMVCVGFLEGGKKSCQGDSGGPVVCNGELQGIVGWGYSCGLPDNPGVYTKVCNYVDWIQDTIAAN | – | – | – | > 5000 | – | 53.9 | 6.24 | 6.4 | 0.97 | An improved affinity for the nucleophile could not be shown | 0.3 | 16.0 | 60.9 | 57.0 | > 5000 | 3 | 13 | An improved affinity for the nucleophile could not be shown for this variant. |
| Trypsiligase I variant 2G10 (protein) IVGGYTCQENSVPYQVSLNSGYPFCGGSLINDQWVVSSAHCYESRIQVRLGEHNINVLEGNEQFVNAAKIIKHPNFDRDTFNNDIMLIKLSSPVKLNARVATVALPSSCAPAGTQCLISGWGHTLSSGVNHPDLLQCLDAPLLPQADCEASYPGKITDNMVCVGFLEGGKKSCEGDSGGPVVCNGELQGIVSWGYGCALPDNPGVYTKVCNYVDWIQDTIAAN | – | – | – | 23 | – | 39.6 | 16.39 | 3.3 | 5.03 | strongly increased affinity for the nucleophilic RH substrate | 2.5 | 65.1 | 59.3 | 26.0 | 23 | – | 6 | shows a strongly increased affinity for the nucleophilic RH substrate compared to the initial enzyme Trypsiligase I |
